Residue numbers refer to the chain shown, from its start.
B1: Dsg2 monoclonal antibody 3D4 (antibody, V domains shown)
VH: QIQLVQSGPELKKPGETVKISCKASGYTFTNYGMNWVRQAPGKALKWMVWMNTNTGESIYAEEFKGRFVFSLDTSASTAYLQINNLNNEDTATYFCARYWDTYWGQGTTLTVSS
VL: DIKMTQSPSSMYASLGERVTITCKASQDINSYLSWFQQKPGKSPKTLIYRANRLVDGVPSRFSGSGSGQDFSLTISSLEYEDMGIYYCLQYDEFPYTFGGGTKLEIK
notes: Mouse hybridoma antibody from BALB/c mice, detected with anti-mouse IgG Fc-gamma specific antibody; also called mAb 3D4
B2: Dsg2 monoclonal antibody 13D3 (antibody, V domains shown)
VH: QVQLQQPGAELVKPGASVKLSCKASGYTFTSYYMYWVKQRPGQGLEWIGGINPNNGGTNFNEKFKSKATLTVDKSSSTAYMQLRSLTSEDSAVYYCIRGSGYGNWGQGTLVTVSA
VL: B1 VL with S31G, F71Y
notes: Mouse hybridoma antibody from BALB/c mice, detected with anti-mouse IgG Fc-gamma specific antibody; also called mAb 13D3

Target: T1, human Desmoglein2 (Dsg2) (human, UniProt Q14126 50-1118)
T1 construct: whole, on cells; also called Dsg2-expressing cells
T1 sequence (looked up): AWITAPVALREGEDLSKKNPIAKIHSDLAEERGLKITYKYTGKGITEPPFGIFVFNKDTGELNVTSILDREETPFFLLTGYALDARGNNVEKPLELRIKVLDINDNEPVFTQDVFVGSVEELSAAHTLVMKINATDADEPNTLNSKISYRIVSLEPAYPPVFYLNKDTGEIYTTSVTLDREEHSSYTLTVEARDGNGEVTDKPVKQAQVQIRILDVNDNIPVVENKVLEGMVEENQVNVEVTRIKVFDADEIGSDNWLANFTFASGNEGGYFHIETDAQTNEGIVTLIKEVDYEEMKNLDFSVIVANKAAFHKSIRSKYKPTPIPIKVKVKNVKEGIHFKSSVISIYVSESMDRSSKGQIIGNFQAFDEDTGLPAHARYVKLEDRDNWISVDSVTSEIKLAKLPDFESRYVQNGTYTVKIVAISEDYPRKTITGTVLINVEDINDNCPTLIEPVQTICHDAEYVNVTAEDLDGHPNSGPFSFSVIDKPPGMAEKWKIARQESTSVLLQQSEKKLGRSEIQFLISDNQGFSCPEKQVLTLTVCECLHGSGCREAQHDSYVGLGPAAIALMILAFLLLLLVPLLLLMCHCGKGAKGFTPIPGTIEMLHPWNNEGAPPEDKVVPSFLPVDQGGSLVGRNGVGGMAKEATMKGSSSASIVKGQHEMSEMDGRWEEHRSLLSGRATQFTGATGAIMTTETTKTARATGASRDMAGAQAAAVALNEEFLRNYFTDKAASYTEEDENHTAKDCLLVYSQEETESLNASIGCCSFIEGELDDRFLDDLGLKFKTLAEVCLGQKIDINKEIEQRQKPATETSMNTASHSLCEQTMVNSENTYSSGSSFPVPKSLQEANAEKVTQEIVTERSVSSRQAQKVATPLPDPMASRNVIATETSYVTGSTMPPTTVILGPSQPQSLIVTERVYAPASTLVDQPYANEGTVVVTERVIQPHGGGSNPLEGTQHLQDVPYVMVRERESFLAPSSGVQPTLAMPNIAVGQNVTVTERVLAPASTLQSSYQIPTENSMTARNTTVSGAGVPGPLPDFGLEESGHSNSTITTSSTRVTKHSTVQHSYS
Assay: flow cytometry and Western blotting, Dsg2 knockdown and Dsg2 over-expression cells

Row | Binder | binding result
1 | B1 | binds
2 | B2 | binds

From patent US20190300604A1 (ASCLEPIUMM TAIWAN, published 2019)
